This assay concerns the target full length pHrodo-labelled monomeric (P301S) 2N4R tau (human) (UniProt P10636). Kind of assay: cell-based or functional assay.

This note sets out measurements from patent publication US20220265819A1.

full length pHrodo-labelled monomeric (P301S) 2N4R tau (human), sequence (P10636 other isoform, or with tags, fused parts or gaps P301S P301S): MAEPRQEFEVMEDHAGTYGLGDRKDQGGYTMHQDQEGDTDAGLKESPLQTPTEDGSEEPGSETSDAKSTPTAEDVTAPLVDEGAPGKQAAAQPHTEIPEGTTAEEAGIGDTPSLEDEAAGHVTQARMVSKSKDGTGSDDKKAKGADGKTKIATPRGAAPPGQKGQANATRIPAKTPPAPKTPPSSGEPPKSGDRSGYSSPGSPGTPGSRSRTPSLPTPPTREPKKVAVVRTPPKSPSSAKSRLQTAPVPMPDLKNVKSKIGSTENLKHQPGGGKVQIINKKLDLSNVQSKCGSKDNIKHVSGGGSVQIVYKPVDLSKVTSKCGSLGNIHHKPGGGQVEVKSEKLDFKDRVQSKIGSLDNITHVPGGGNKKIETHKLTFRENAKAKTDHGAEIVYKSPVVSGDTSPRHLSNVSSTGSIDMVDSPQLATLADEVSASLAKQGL

On to “isotype control rabbit IgG (Abcam) (antibody)”, for which the inhibition of uptake of monomeric tau into human iPSC-derived neurons was found to be 14.5 % inhibition. human IgG1 isotype control (antibody) registered an inhibition of uptake of monomeric tau into human iPSC-derived neurons of 16.9 % inhibition.
